Source: patent US20240010750A1 (Bayer, published 2024)

What was measured:
[1] = molecular target: human Plasmin (human, UniProt P00747 97-580; P00747 581-810, limits assumed); assay: cell-based or functional assay
[2] = molecular target: T1, human alpha2-Antiplasmin (human, UniProt P08697 40-491); assay: cell-based or functional assay
T1 sequence: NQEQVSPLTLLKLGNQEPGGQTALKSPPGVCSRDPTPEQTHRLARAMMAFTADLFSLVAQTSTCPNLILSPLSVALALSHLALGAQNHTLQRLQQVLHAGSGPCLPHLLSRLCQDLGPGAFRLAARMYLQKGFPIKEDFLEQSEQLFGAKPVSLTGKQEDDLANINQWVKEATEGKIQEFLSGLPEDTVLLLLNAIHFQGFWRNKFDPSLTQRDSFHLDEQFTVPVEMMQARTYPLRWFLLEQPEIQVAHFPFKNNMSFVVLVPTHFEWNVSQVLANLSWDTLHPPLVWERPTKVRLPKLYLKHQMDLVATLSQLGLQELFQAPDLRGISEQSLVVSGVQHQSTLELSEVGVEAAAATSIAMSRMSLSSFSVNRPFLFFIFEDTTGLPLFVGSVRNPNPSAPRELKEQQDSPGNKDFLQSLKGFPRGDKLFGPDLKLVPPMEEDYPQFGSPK

[3] = molecular target: T2, cynomolgus alpha2-Antiplasmin (cynomolgus (Macaca fascicularis), UniProt P08697 28-491 (human entry)); assay: cell-based or functional assay
T2 chain: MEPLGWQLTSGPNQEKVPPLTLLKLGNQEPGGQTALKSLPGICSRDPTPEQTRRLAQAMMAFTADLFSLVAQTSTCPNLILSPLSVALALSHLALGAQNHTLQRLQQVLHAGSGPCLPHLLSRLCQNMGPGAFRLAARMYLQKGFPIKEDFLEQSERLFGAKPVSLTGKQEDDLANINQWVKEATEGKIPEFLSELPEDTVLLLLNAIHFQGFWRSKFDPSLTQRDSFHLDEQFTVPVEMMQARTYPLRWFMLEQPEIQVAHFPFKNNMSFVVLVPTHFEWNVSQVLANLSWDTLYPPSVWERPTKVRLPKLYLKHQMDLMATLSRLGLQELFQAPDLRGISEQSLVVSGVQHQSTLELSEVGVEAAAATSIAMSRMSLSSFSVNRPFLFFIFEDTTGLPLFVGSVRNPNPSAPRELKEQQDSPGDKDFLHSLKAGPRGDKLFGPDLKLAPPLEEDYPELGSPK

[4] = molecular target: T3, rabbit alpha2-Antiplasmin (rabbit (Oryctolagus cuniculus)); assay: cell-based or functional assay
T3 chain: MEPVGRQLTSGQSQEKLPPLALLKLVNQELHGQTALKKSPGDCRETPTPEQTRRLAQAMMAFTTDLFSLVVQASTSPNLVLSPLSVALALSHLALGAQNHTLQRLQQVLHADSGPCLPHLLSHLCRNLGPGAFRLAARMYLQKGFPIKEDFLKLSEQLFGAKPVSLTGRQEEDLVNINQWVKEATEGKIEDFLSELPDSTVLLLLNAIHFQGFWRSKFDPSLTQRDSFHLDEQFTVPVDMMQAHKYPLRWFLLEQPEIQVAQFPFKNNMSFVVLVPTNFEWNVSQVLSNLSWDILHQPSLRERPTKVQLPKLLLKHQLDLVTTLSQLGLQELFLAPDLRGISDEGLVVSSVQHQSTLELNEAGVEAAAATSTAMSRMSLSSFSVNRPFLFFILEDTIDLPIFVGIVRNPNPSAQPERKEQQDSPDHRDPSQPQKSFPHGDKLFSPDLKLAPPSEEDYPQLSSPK

[5] = molecular target: T1, human alpha2-Antiplasmin; assay: ELISA, coated antigen, 3rd exp.
Procedure: (§1) A standard ELISA format was used for analyzing the binding affinity of Fabs of this invention to human and rabbit alpha-2-Antiplasmin, respectively. Antigens were coated to black 384 well Maxisorp microtiter plates (Nunc; catalogue number 460518), diluted to a concentration of 1 μg/ml in 1× Coating Buffer (Candor Bioscience; catalogue number 121125). Plates were incubated overnight at 4° C. After overnight incubation, plates were washed 2× with 50 μl/well using PBS+0.05% Tween 20. Following this, 50 μl/well of blocking buffer (Smart Block; Candor Bioscience; catalogue number 113500) was added and the plates were incubated for 1 hour at room temperature. Afterwards, plates were washed for 3× using […] PBS+0.05% Tween 20 buffer. Fabs of this invention were added at different concentrations in a final volume of 30 μl/well. Plates were incubated for 1 hour at room temperature. Following this incubation step, plates were washed for 3× using 50 μl/well of a PBS+0.05% Tween 20 buffer. For the detection of bound Fabs and full-length antibodies, the anti-Human Lambda Light Chains (Bound and Free)—Peroxidase antibody (Sigma; catalogue number A5175) was diluted by the factor of 1:10.000 in 10% Blocking Buffer. […]
(§2) For measurement, the Infinite f500 reader (Tecan) was used. Measurement mode: Fluorescence; Top reading; Ex 535 nm; Em 590 nm.

[6] = molecular target: T3, rabbit alpha2-Antiplasmin; assay: ELISA, coated antigen, 3rd exp.
Procedure: as §1, §2

[7] = molecular target: T2, cynomolgus alpha2-Antiplasmin; assay: cell-based or functional assay

human Plasmin, sequence (P00747 97-580 limits assumed, chain 1 of 2): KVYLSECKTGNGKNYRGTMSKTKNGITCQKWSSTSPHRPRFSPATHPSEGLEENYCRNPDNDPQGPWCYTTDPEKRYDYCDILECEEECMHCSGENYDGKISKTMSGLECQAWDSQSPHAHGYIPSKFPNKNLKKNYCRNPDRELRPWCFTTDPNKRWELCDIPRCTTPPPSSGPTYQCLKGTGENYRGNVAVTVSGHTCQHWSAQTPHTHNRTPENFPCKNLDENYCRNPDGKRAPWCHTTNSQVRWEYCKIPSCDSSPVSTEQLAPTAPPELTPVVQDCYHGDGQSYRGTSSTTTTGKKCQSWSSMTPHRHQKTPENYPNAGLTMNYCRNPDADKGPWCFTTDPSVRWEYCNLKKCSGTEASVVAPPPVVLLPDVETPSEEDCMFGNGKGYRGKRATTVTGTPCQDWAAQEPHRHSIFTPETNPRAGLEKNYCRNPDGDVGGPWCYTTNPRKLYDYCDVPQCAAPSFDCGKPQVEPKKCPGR
human Plasmin, sequence (P00747 581-810 limits assumed, chain 2 of 2): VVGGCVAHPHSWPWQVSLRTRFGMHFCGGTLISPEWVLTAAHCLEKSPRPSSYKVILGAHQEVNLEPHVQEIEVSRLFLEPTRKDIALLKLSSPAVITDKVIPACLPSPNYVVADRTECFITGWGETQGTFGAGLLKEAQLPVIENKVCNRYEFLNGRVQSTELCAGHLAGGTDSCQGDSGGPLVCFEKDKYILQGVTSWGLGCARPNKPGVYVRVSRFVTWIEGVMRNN

IC50 [M], inhibition of plasmin proteolytic activity [1]: > 1e-05 M
function blocking activity IC50, 1st exp. (FIG. 5) [2]: 170 nM
function blocking activity IC50, 2nd exp. [2]: 180 nM
function blocking activity IC50, 3rd exp. [2]: 180 nM
function blocking activity IC50, 1st exp. (FIG. 6.2) [3]: 160 nM
function blocking activity IC50, 2nd exp. [3]: 160 nM
function blocking activity EC50 (FIG. 5 legend) [4]: 1.4 nM
printed as 'binding activity' in the sentence on function blocking (IC50), 1st exp. [4]: 14 nM
printed as 'binding activity' in the sentence on function blocking (IC50), 2nd exp. [4]: 13 nM
printed as 'binding activity' in the sentence on function blocking (IC50), 3rd exp. [4]: 15 nM
EC50 [5]: 130 nM
EC50 [6]: 6.2 nM
EC50 (read off the curve); function blocking assay (Example 4), RFU of plasmin substrate cleavage [7]: ~200 nM
B1: TPP-12387 hIgG1 (antibody, V domains shown)
VH: EVQLLESGGGLVQPGGSLRLSCAASGFTFDDYAMSWVRQAPGKGLEWVSAIGTGGGTYYADSVKGRFTISRDNSKNTLYLQMNSLRAEDTAVYYCAREYYDSSGYYHLDYWGQGTLVTVSS
VL: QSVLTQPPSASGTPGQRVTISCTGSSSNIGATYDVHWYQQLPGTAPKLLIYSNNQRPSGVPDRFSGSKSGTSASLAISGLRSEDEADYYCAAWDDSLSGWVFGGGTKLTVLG
notes: Fully human IgG1 lambda from the BioInvent n-CoDeR Fab lambda library; parental lead antibody
